Data: paper PMC2936243 (Journal of neurochemistry, 2010)

Target: native rat α7 nicotinic acetylcholine receptor (hippocampus) (rat (endogenous in hippocampus)) (UniProt Q05941)
Test: radioligand binding

**Q.** What does the source list for “Alexa Fluor 546-ArIB[V11L;V16A] (peptide)”?
**A.** IC50: 7.9 nM; Ki: 1.8 nM
